According to patent publication US7994281 (EUROPEAN MOLECULAR BIOLOGY LABORATORY, dated 2011):

What was measured:
[1] = molecular target: T1, DR5 (TRAIL-R2) Fc, recombinant receptor from R&D Systems (UniProt O14763 54-182, limits assumed); assay: SPR, Biacore 3000, 37 C, receptor Fc on CM5 chip, ligand 0.1-250 nM
T1 construct: also called soluble TRAIL-R2 Fc; immobilized TRAIL-R2 Fc; not shown: Fc part of the bought Fc fusion
Experimental: (§1) Binding experiments were performed using a surface plasmon resonance-based biosensor Biacore 3000 (Biacore AB, Uppsala, Sweden), at 37° C. Recombinant receptors were ordered from R&D systems (R&D systems, Minneapolis, Minn., USA). […] Receptors were coated at a level of ~600-800 RU. […] Between injections the receptor/sensor surface was regenerated using 30 µl of 3 M sodium acetate pH 5.2.

[2] = molecular target: T2, DR4 (TRAIL-R1) Fc, recombinant receptor from R&D Systems (UniProt O00220 24-239, limits assumed); assay: as above
T2 construct: also called soluble TRAIL-R1 Fc; not shown: Fc part of the bought Fc fusion
Experimental: as §1

[3] = molecular target: T1, DR5 (TRAIL-R2) Fc, recombinant receptor …; assay: SPR, Biacore 3000, 37 C, receptor on chip, 1:1 Langmuir global fit, preliminary apparent Kd
Experimental: (§2) Binding of the purified mutants was assessed in real time using surface plasmon resonance on a Biacore 3000 with a sensor chip as described above. […] Measurements performed at 37° C. to allow increased $koff$ and dissociation was monitored for 20 min. Measured $kon$ and $koff$ rates were used to calculate apparent K_d values for the mutants for the respective receptors. A global fit procedure was used and a 1:1 Langmuir interaction model.

[4] = molecular target: T2, DR4 (TRAIL-R1) Fc, recombinant receptor …; assay: as above
Experimental: as §2

[5] = molecular target: T3, DcR1 (TRAIL-R3) Fc, recombinant receptor (UniProt O14798 26-221, limits assumed); assay: SPR, Biacore 3000, 37 C, receptor Fc on CM5 chip
T3 construct: not shown: Fc part of the Fc fusion
T3 sequence (looked up): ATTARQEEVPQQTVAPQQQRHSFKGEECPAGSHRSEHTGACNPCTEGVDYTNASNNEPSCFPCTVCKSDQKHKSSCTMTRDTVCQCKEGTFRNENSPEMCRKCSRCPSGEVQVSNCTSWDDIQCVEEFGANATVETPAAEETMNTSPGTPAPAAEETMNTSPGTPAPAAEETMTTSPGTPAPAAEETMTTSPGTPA
Experimental: as §1

[6] = molecular target: T1, DR5 (TRAIL-R2) Fc, recombinant receptor …; assay: SPR, receptor Fc immobilised, ligand 0.1 to 250 nM
Experimental: as §1
(§3) Combinations between the stability variants and selectivity variants described above can be made, giving variants with enhanced stability and altered selectivity/specificity. […] Mutants were tested for receptor binding and biological activity as described in Examples 1, 2 and 3.

[7] = molecular target: T2, DR4 (TRAIL-R1) Fc, recombinant receptor …; assay: SPR, receptor Fc immobilised, ligand 0.1 to 250 nM
Experimental: as §1, §3

[8] = molecular target: T2, DR4 (TRAIL-R1) Fc, recombinant receptor …; assay: SPR (Biacore), E. coli extracts diluted 1:50 over immobilised receptor
Experimental: (§4) Control extracts of BL21 (DE3) culture without an over-expression plasmid and of a BL21 (DE3) culture with plasmid over-expressing SH3 domain were also injected.

[9] = molecular target: T4, murine RANK (receptor) (murine, UniProt O35305 31-214, limits assumed); assay: SPR (Biacore): clarified E. coli extract diluted 1:50 injected over immobilised DR4, DR5, DcR1 and RANK; bars are the response as a fraction of the DR4 response
T4 construct: Control surface in the SPR screening
T4 sequence (looked up): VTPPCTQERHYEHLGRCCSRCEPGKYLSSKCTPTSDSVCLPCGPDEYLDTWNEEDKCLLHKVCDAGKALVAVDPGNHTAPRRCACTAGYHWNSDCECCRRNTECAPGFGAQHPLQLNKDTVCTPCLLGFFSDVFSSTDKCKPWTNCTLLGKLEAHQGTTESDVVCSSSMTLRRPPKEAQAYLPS
Experimental: as §4

[10] = molecular target: T2, DR4 (TRAIL-R1) Fc, recombinant receptor …; assay: SPR, Biacore 3000, 25 C, receptor amine-coupled to CM5 chip, ligand 2 ug/ml
Experimental: Binding experiments were performed using a surface plasmon resonance-based biosensor Biacore 3000 (Biacore AB, Uppsala, Sweden), at 25° C. Recombinant receptors were ordered from R&D systems (R&D systems, Minneapolis, Minn., USA). Immobilization of the receptors on the sensor surface of a Biacore CM5 sensor chip was performed following a standard amine coupling procedure according to the manufacturer's instructions. A reference surface was generated simultaneously under the same conditions but without receptor injection and used as a blank to correct for instrument and buffer artifacts. […] Binding of ligands to the receptors was monitored in real-time. The receptor/sensor surface was regenerated using 3 M sodium acetate pH 5.2 injections.

T2 sequence (O00220 24-239 limits assumed): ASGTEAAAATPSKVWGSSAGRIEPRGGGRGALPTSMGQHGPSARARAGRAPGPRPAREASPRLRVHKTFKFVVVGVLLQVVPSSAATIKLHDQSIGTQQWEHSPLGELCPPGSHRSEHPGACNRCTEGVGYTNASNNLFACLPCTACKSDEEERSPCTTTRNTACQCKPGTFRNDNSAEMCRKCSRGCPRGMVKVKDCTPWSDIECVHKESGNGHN
T1 sequence (O14763 54-182 limits assumed): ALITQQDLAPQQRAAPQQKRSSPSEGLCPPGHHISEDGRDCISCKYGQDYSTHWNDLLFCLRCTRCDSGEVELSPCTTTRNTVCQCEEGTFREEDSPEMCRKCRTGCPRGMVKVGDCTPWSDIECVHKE

B1: TRAIL mutant D269H (ligand)
chain: VRERGPQRVAAHITGTRGRSNTLSSPNSKNEKALGRKINSWESSRSGHSFLSNLHLRNGELVIHEKGFYYIYSQTYFRFQEEIKENTKNDKQMVQYIYKYTSYPDPILLMKSARNSCWSKDAEYGLYSIYQGGIFELKENDRIFVSVTNEHLIDMHHEASFFGAFLVG
fold improvement in binding relative to wild-type TRAIL [1]: > 10 fold | fold reduction in binding relative to wild-type TRAIL [2]: > 15 fold | Kd [3]: < 0.4 nM | Kd [4]: 0.6 nM | fold decrease in binding compared to wild-type TRAIL [5]: ~10 fold

B2: TRAIL mutant D269HM1 (D269H combined with M1: E194I, I196S) (ligand)
chain: VRERGPQRVAAHITGTRGRSNTLSSPNSKNEKALGRKINSWESSRSGHSFLSNLHLRNGELVIHEKGFYYIYSQTYFRFQIESKENTKNDKQMVQYIYKYTSYPDPILLMKSARNSCWSKDAEYGLYSIYQGGIFELKENDRIFVSVTNEHLIDMHHEASFFGAFLVG
fold improvement in binding relative to wild-type TRAIL [6]: > 8 fold | fold reduction in binding relative to wild-type TRAIL [7]: > 8 fold

B3: TRAIL mutant E195R (ligand)
chain: VRERGPQRVAAHITGTRGRSNTLSSPNSKNEKALGRKINSWESSRSGHSFLSNLHLRNGELVIHEKGFYYIYSQTYFRFQERIKENTKNDKQMVQYIYKYTSYPDPILLMKSARNSCWSKDAEYGLYSIYQGGIFELKENDRIFVSVTNEHLIDMDHEASFFGAFLVG
binding result [8]: binds

B4: TRAIL mutant G160M (ligand)
chain: VRERGPQRVAAHITGTRGRSNTLSSPNSKNEKALGRKINSWESSRSMHSFLSNLHLRNGELVIHEKGFYYIYSQTYFRFQEEIKENTKNDKQMVQYIYKYTSYPDPILLMKSARNSCWSKDAEYGLYSIYQGGIFELKENDRIFVSVTNEHLIDMDHEASFFGAFLVG
Kd [3]: 0.5 nM | Kd [4]: 0.4 nM | binding result [9]: no binding

B5: TRAIL mutant M3 (S225A) (ligand)
chain: VRERGPQRVAAHITGTRGRSNTLSSPNSKNEKALGRKINSWESSRSGHSFLSNLHLRNGELVIHEKGFYYIYSQTYFRFQEEIKENTKNDKQMVQYIYKYTSYPDPILLMKAARNSCWSKDAEYGLYSIYQGGIFELKENDRIFVSVTNEHLIDMDHEASFFGAFLVG
notes: Stability mutant built on soluble TRAIL 114-281
binding result [10]: binds
